Results on one molecule are retold here after article PMC3024247.

This test addresses amyloid β-peptide (human, 1-40) (human). Description: SPR; Biacore 3000; Aβ immobilised by amine coupling on a CM5 chip; analytes injected in 10 mM HEPES-NaOH pH 7.4, 0.15 M NaCl, 0.0005% Tween 20; 25°C; hMK 0.62-20 μg/ml for the constant, all other analytes 5 μg/ml. (Surface plasmon resonance follows binding to a sensor surface in real time, without labels.)

B1: human midkine (natural protein)
chain: VAKKKDKVKKGGPGSECAEWAWGPCTPSSKDCGVGFREGTCGAQTQRIRCRVPCNWKKEFGADCKYKFENWGACDGGTGTKVRQGTLKKARYNAQCQETIRVTKPCTPKTKAKAKAKKGKGKD
In the case of B1, the Kd was determined as 160 nM.

The Kd is the equilibrium constant for the complex coming apart. A higher Kd goes with weaker binding.
